Test results published in patent US20200317768A1 (published 2020).

Biological target: T1, cynomolgus monkey FcγRIIa3 extracellular domain, His-tagged (cynomolgus monkey)
T1 construct: also called cyno FcγRIIa3; cynoFcgRIIa3; not shown: C-terminal His-tag
T1 chain: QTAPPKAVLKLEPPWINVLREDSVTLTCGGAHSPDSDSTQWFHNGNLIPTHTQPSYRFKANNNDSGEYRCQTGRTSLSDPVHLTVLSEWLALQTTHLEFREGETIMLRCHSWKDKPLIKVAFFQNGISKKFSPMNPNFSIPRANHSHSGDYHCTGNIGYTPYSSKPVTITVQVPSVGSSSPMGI
Assay: SPR (BIACORE), captured antibody, FcgR as analyte

B1: M103205H795-MY448/M103202L889-SK1 (antibody, human IgG1, kappa)
heavy: QVTLKESGPVLVKPTETLTLTCTVSGIDLSHDDISWVRQAPGKGLEWVGIISYAGSTYYASWAKGRLTISKDTSKNQVVLTMTNMDPVDTATYYCARGVPAYSHGGDLWGQGTLVTVSSASTKGPSVFPLAPSSKSTSGGTAALGCLVKDYFPEPVTVSWNSGALTSGVHTFPAVLQSSGLYSLSSVVTVPSSSLGTQTYICNVNHKPSNTKVDKKVEPKSCDKTHTCPPCPAKELLTGPSVFLFPPKPKDTLMISRTPEVTCVVVDVSDEDPEVKFNWYVDGVEVHNAKTKPREEQYNSTYRVVSVLTVLHQDWLNGKEYKCKVSNKALPKPIEKTISKAKGQPREPQVYTLPPSREEMTKNQVSLTCLVKGFYPSDIAVEWESNGQPENNYKTTPPVLDSDGSFFLYSKLTVDKSRWQQGNVFSCSVMHEALHNHYTQKSLSLSP
light: DIVMTQSPATLSLSPGERATLSCTSSQSVYHANWLSWFQQKPGQPPKLLIYWASTLAYGVPSRFSGSGSGTDFTLTISSLQPEDAATYYCAGGYGGGRYAFGQGTKVEIKRTVAAPSVFIFPPSDEQLKSGTASVVCLLNNFYPREAKVQWKVDNALQSGNSQESVTEQDSKDSTYSLSSTLTLSKADYEKHKVYACEVTHQGLSSPVTKSFNRGEC
notes: copies: 2 + 2
B1 gave a Kd of 21 µM.

B2: M103205H795-MY461/M103202L889-SK1 (antibody, human IgG1, kappa)
heavy: QVTLKESGPVLVKPTETLTLTCTVSGIDLSHDDISWVRQAPGKGLEWVGIISYAGSTYYASWAKGRLTISKDTSKNQVVLTMTNMDPVDTATYYCARGVPAYSHGGDLWGQGTLVTVSSASTKGPSVFPLAPSSKSTSGGTAALGCLVKDYFPEPVTVSWNSGALTSGVHTFPAVLQSSGLYSLSSVVTVPSSSLGTQTYICNVNHKPSNTKVDKKVEPKSCDKTHTCPPCPFPELLTGPSVFLFPPKPKDTLMISRTPEVTCVVVDVSDEDPEVKFNWYVDGVEVHNAKTKPREEQYNSTYRVVSVLTVLHQDWLNGKEYKCKVSNKALPKPIEKTISKAKGQPREPQVYTLPPSREEMTKNQVSLTCLVKGFYPSDIAVEWESNGQPENNYKTTPPVLDSDGSFFLYSKLTVDKSRWQQGNVFSCSVMHEALHNHYTQKSLSLSP
light: DIVMTQSPATLSLSPGERATLSCTSSQSVYHANWLSWFQQKPGQPPKLLIYWASTLAYGVPSRFSGSGSGTDFTLTISSLQPEDAATYYCAGGYGGGRYAFGQGTKVEIKRTVAAPSVFIFPPSDEQLKSGTASVVCLLNNFYPREAKVQWKVDNALQSGNSQESVTEQDSKDSTYSLSSTLTLSKADYEKHKVYACEVTHQGLSSPVTKSFNRGEC
notes: copies: 2 + 2
With B2 the Kd was 3.3 µM.

B3: M103205H795-MY465/M103202L889-SK1 (antibody, human IgG1, kappa)
heavy: QVTLKESGPVLVKPTETLTLTCTVSGIDLSHDDISWVRQAPGKGLEWVGIISYAGSTYYASWAKGRLTISKDTSKNQVVLTMTNMDPVDTATYYCARGVPAYSHGGDLWGQGTLVTVSSASTKGPSVFPLAPSSKSTSGGTAALGCLVKDYFPEPVTVSWNSGALTSGVHTFPAVLQSSGLYSLSSVVTVPSSSLGTQTYICNVNHKPSNTKVDKKVEPKSCDKTHTCPPCPKPELLTGPSVFLFPPKPKDTLMISRTPEVTCVVVDVSDEDPEVKFNWYVDGVEVHNAKTKPREEQYNSTYRVVSVLTVLHQDWLNGKEYKCKVSNKALPKPIEKTISKAKGQPREPQVYTLPPSREEMTKNQVSLTCLVKGFYPSDIAVEWESNGQPENNYKTTPPVLDSDGSFFLYSKLTVDKSRWQQGNVFSCSVMHEALHNHYTQKSLSLSP
light: DIVMTQSPATLSLSPGERATLSCTSSQSVYHANWLSWFQQKPGQPPKLLIYWASTLAYGVPSRFSGSGSGTDFTLTISSLQPEDAATYYCAGGYGGGRYAFGQGTKVEIKRTVAAPSVFIFPPSDEQLKSGTASVVCLLNNFYPREAKVQWKVDNALQSGNSQESVTEQDSKDSTYSLSSTLTLSKADYEKHKVYACEVTHQGLSSPVTKSFNRGEC
notes: copies: 2 + 2
In the case of B3, the Kd is reported as 5.2 µM.

B4: M103205H795-MY464/M103202L889-SK1 (antibody, human IgG1, kappa)
heavy: QVTLKESGPVLVKPTETLTLTCTVSGIDLSHDDISWVRQAPGKGLEWVGIISYAGSTYYASWAKGRLTISKDTSKNQVVLTMTNMDPVDTATYYCARGVPAYSHGGDLWGQGTLVTVSSASTKGPSVFPLAPSSKSTSGGTAALGCLVKDYFPEPVTVSWNSGALTSGVHTFPAVLQSSGLYSLSSVVTVPSSSLGTQTYICNVNHKPSNTKVDKKVEPKSCDKTHTCPPCPIPELLTGPSVFLFPPKPKDTLMISRTPEVTCVVVDVSDEDPEVKFNWYVDGVEVHNAKTKPREEQYNSTYRVVSVLTVLHQDWLNGKEYKCKVSNKALPKPIEKTISKAKGQPREPQVYTLPPSREEMTKNQVSLTCLVKGFYPSDIAVEWESNGQPENNYKTTPPVLDSDGSFFLYSKLTVDKSRWQQGNVFSCSVMHEALHNHYTQKSLSLSP
light: DIVMTQSPATLSLSPGERATLSCTSSQSVYHANWLSWFQQKPGQPPKLLIYWASTLAYGVPSRFSGSGSGTDFTLTISSLQPEDAATYYCAGGYGGGRYAFGQGTKVEIKRTVAAPSVFIFPPSDEQLKSGTASVVCLLNNFYPREAKVQWKVDNALQSGNSQESVTEQDSKDSTYSLSSTLTLSKADYEKHKVYACEVTHQGLSSPVTKSFNRGEC
notes: copies: 2 + 2
B4 gave a Kd of 3.9 µM.

B5: M103205H795-MY462/M103202L889-SK1 (antibody, human IgG1, kappa)
heavy: QVTLKESGPVLVKPTETLTLTCTVSGIDLSHDDISWVRQAPGKGLEWVGIISYAGSTYYASWAKGRLTISKDTSKNQVVLTMTNMDPVDTATYYCARGVPAYSHGGDLWGQGTLVTVSSASTKGPSVFPLAPSSKSTSGGTAALGCLVKDYFPEPVTVSWNSGALTSGVHTFPAVLQSSGLYSLSSVVTVPSSSLGTQTYICNVNHKPSNTKVDKKVEPKSCDKTHTCPPCPGPELLTGPSVFLFPPKPKDTLMISRTPEVTCVVVDVSDEDPEVKFNWYVDGVEVHNAKTKPREEQYNSTYRVVSVLTVLHQDWLNGKEYKCKVSNKALPKPIEKTISKAKGQPREPQVYTLPPSREEMTKNQVSLTCLVKGFYPSDIAVEWESNGQPENNYKTTPPVLDSDGSFFLYSKLTVDKSRWQQGNVFSCSVMHEALHNHYTQKSLSLSP
light: DIVMTQSPATLSLSPGERATLSCTSSQSVYHANWLSWFQQKPGQPPKLLIYWASTLAYGVPSRFSGSGSGTDFTLTISSLQPEDAATYYCAGGYGGGRYAFGQGTKVEIKRTVAAPSVFIFPPSDEQLKSGTASVVCLLNNFYPREAKVQWKVDNALQSGNSQESVTEQDSKDSTYSLSSTLTLSKADYEKHKVYACEVTHQGLSSPVTKSFNRGEC
notes: copies: 2 + 2
With B5 the Kd was 4.2 µM.

B6: M103205H795-MY459/M103202L889-SK1 (antibody, human IgG1, kappa)
heavy: QVTLKESGPVLVKPTETLTLTCTVSGIDLSHDDISWVRQAPGKGLEWVGIISYAGSTYYASWAKGRLTISKDTSKNQVVLTMTNMDPVDTATYYCARGVPAYSHGGDLWGQGTLVTVSSASTKGPSVFPLAPSSKSTSGGTAALGCLVKDYFPEPVTVSWNSGALTSGVHTFPAVLQSSGLYSLSSVVTVPSSSLGTQTYICNVNHKPSNTKVDKKVEPKSCDKTHTCPPCPDPELLTGPSVFLFPPKPKDTLMISRTPEVTCVVVDVSDEDPEVKFNWYVDGVEVHNAKTKPREEQYNSTYRVVSVLTVLHQDWLNGKEYKCKVSNKALPKPIEKTISKAKGQPREPQVYTLPPSREEMTKNQVSLTCLVKGFYPSDIAVEWESNGQPENNYKTTPPVLDSDGSFFLYSKLTVDKSRWQQGNVFSCSVMHEALHNHYTQKSLSLSP
light: DIVMTQSPATLSLSPGERATLSCTSSQSVYHANWLSWFQQKPGQPPKLLIYWASTLAYGVPSRFSGSGSGTDFTLTISSLQPEDAATYYCAGGYGGGRYAFGQGTKVEIKRTVAAPSVFIFPPSDEQLKSGTASVVCLLNNFYPREAKVQWKVDNALQSGNSQESVTEQDSKDSTYSLSSTLTLSKADYEKHKVYACEVTHQGLSSPVTKSFNRGEC
notes: copies: 2 + 2
For B6, the Kd was 7.5 µM.

B7: M103205H795-MY460/M103202L889-SK1 (antibody, human IgG1, kappa)
heavy: QVTLKESGPVLVKPTETLTLTCTVSGIDLSHDDISWVRQAPGKGLEWVGIISYAGSTYYASWAKGRLTISKDTSKNQVVLTMTNMDPVDTATYYCARGVPAYSHGGDLWGQGTLVTVSSASTKGPSVFPLAPSSKSTSGGTAALGCLVKDYFPEPVTVSWNSGALTSGVHTFPAVLQSSGLYSLSSVVTVPSSSLGTQTYICNVNHKPSNTKVDKKVEPKSCDKTHTCPPCPEPELLTGPSVFLFPPKPKDTLMISRTPEVTCVVVDVSDEDPEVKFNWYVDGVEVHNAKTKPREEQYNSTYRVVSVLTVLHQDWLNGKEYKCKVSNKALPKPIEKTISKAKGQPREPQVYTLPPSREEMTKNQVSLTCLVKGFYPSDIAVEWESNGQPENNYKTTPPVLDSDGSFFLYSKLTVDKSRWQQGNVFSCSVMHEALHNHYTQKSLSLSP
light: DIVMTQSPATLSLSPGERATLSCTSSQSVYHANWLSWFQQKPGQPPKLLIYWASTLAYGVPSRFSGSGSGTDFTLTISSLQPEDAATYYCAGGYGGGRYAFGQGTKVEIKRTVAAPSVFIFPPSDEQLKSGTASVVCLLNNFYPREAKVQWKVDNALQSGNSQESVTEQDSKDSTYSLSSTLTLSKADYEKHKVYACEVTHQGLSSPVTKSFNRGEC
notes: copies: 2 + 2
B7 was tested, and the Kd was 5.5 µM.

B8: M103205H795-MY463/M103202L889-SK1 (antibody, human IgG1, kappa)
heavy: QVTLKESGPVLVKPTETLTLTCTVSGIDLSHDDISWVRQAPGKGLEWVGIISYAGSTYYASWAKGRLTISKDTSKNQVVLTMTNMDPVDTATYYCARGVPAYSHGGDLWGQGTLVTVSSASTKGPSVFPLAPSSKSTSGGTAALGCLVKDYFPEPVTVSWNSGALTSGVHTFPAVLQSSGLYSLSSVVTVPSSSLGTQTYICNVNHKPSNTKVDKKVEPKSCDKTHTCPPCPHPELLTGPSVFLFPPKPKDTLMISRTPEVTCVVVDVSDEDPEVKFNWYVDGVEVHNAKTKPREEQYNSTYRVVSVLTVLHQDWLNGKEYKCKVSNKALPKPIEKTISKAKGQPREPQVYTLPPSREEMTKNQVSLTCLVKGFYPSDIAVEWESNGQPENNYKTTPPVLDSDGSFFLYSKLTVDKSRWQQGNVFSCSVMHEALHNHYTQKSLSLSP
light: DIVMTQSPATLSLSPGERATLSCTSSQSVYHANWLSWFQQKPGQPPKLLIYWASTLAYGVPSRFSGSGSGTDFTLTISSLQPEDAATYYCAGGYGGGRYAFGQGTKVEIKRTVAAPSVFIFPPSDEQLKSGTASVVCLLNNFYPREAKVQWKVDNALQSGNSQESVTEQDSKDSTYSLSSTLTLSKADYEKHKVYACEVTHQGLSSPVTKSFNRGEC
notes: copies: 2 + 2
B8 showed a Kd of 4.4 µM.
